Laboratory results published in patent US20260216244A1 (published 2026).

T1: EGFR L858R peptide on HLA-A*03:01 (human)
T1 peptide: KITDFGRAK


Biological target: T1, EGFR L858R peptide on HLA-A*03:01
Assay: multimer staining

Row | Binder | binding result
1 | TCR3 (TCR, V domains shown) Valpha: ENVEQHPSTLSVQEGDSAVIKCTYSDSASNYFPWYKQELGKRPQLIIDIRSNVGEKKDQRIAVTLNKTAKHFSLHITETQPEDSAVYFCAADMRFGAGTRLTVKP Vbeta: GVTQTPKFRILKIGQSMTLQCTQDMNHNYMYWYRQDPGMGLKLIYYSVGAGITDKGEVPNGYNVSRSTTEDFPLRLELAAPSQTSVYFCASSYSRDSIREQYFGPGTRLTVT | recognises
2 | TCR4 (TCR, V domains shown) Valpha: QKEVEQNSGPLSVPEGAIASLNCTYSDRGSQSFFWYRQYSGKSPELIMSIYSNGDKEDGRFTAQLNKASQYVSLLIRDSQPSDSATYLCAVSATGFQKLVFGTGTRLLVSP Vbeta: QVTQNPRYLITVTGKKLTVTCSQNMNHEYMSWYRQDPGLGLRQIYYSMNVEVTDKGDVPEGYKVSRKEKRNFPLILESPSPNQTSLYFCASTADRGGNEQFFGPGTRLTVL | recognises
